Positions count from the first letter of the chain named. Names may count otherwise.
B1: MBIO-5335: LgLux_4039 variant S2C, R11L, V46I, E54D; SEQ ID NO 2797 (protein)
chain: MCEEQIRQNLLRFYEALDSGDAITAASLFDPGVTITLWDGTTFTSIEEFREWFDSQFSTSKDALREISSLEVRGDTVEVTVRLSFTRNGQKHTVDLLQLFKFV
B2: MBIO-5337: LgLux_4039 variant R11L, D30N; SEQ ID NO 2799 (protein)
chain: B1 chain with C2S, D30N, I46V, D54E
B3: MBIO-5336: LgLux_4039 variant R11L; SEQ ID NO 2798 (protein)
chain: B1 chain with C2S, I46V, D54E
B4: MBIO-5365: computationally generated LgLux, SEQ ID NO 2780 (protein)
chain: MTPEELRQNLLRFYEALDSGDAVAAASLFNPGVTITLWDGTTFTSVEEFREWFETQFKTSKDALREIESLEVDGDTVRVTVRLTFTRDGEEQVVDLLQLFKFV
B5: MBIO-5366: computationally generated LgLux, SEQ ID NO 2781 (protein)
chain: B4 chain with A26K
B6: MBIO-5370: computationally generated LgLux, SEQ ID NO 2785 (protein)
chain: B4 chain with L6I, L11R, V23E, A26K, N30D, T55E, Q92K
B7: MBIO-5368: computationally generated LgLux, SEQ ID NO 2783 (protein)
chain: B4 chain with A26K, P31S, T41A, V46I, E48K, E54D, R87S
B8: MBIO-5367: computationally generated LgLux, SEQ ID NO 2782 (protein)
chain: B4 chain with P31S, T41A, V46I, E48K, E54D, R87S
B9: MBIO-5369: computationally generated LgLux, SEQ ID NO 2784 (protein)
chain: B4 chain with L6I, V23E, A26K, T55E, Q92K
B10: MBIO-5381: computationally generated LgLux, SEQ ID NO 2796 (protein)
chain: MTPEERIANVLAFYAALASGDLEAAKALFNPGVTITLWDGTTFTSVEEFRAWFEEQFKTSKDALREIESIEVDGDTVRVLVRLTFVRDGEEKVVDLLQLFKFV
B11: MBIO-5374: computationally generated LgLux, SEQ ID NO 2789 (protein)
chain: B10 chain with L11R, K26A, N30D
B12: MBIO-5373: computationally generated LgLux, SEQ ID NO 2788 (protein)
chain: B10 chain with K26A
B13: MBIO-5360: computationally generated LgLux, SEQ ID NO 2775 (protein)
chain: B10 chain with R6L, E23V, E55T, K92Q
B14: MBIO-5361: computationally generated LgLux, SEQ ID NO 2776 (protein)
chain: B10 chain with R6L, E23V, P31S, T41A, V46I, E48K, E54D, E55T, R87S, K92Q
B15: MBIO-5358: computationally generated LgLux, SEQ ID NO 2774 (protein)
chain: B1 chain with C2S, N9D, D30N, I46V, D54E, L99Q, V103I
B16: MBIO-5377: computationally generated LgLux, SEQ ID NO 2792 (protein)
chain: MTPEERIADVRAFYAALASGDLEAAKALFDPGVTITLWDGTTFTSVEEFRAWFEEQFKTSKDALREIESIEVDGDTVRVLVRLSFTRNGQKHTVDLLQQFKFI
B17: MBIO-5363: computationally generated LgLux, SEQ ID NO 2778 (protein)
chain: B16 chain with D9N, R11L, D30N, Q99L, I103V
B18: MBIO-5378: computationally generated LgLux, SEQ ID NO 2793 (protein)
chain: B10 chain with N9D, L11R, N30D, L99Q, V103I
B19: MBIO-5376: computationally generated LgLux, SEQ ID NO 2791 (protein)
chain: B16 chain with Q99L
B20: MBIO-5375: computationally generated LgLux, SEQ ID NO 2790 (protein)
chain: B16 chain with Q99L, I103V
B21: MBIO-5380: computationally generated LgLux, SEQ ID NO 2795 (protein)
chain: B10 chain with N9D, L11R, N30D
B22: MBIO-5379: computationally generated LgLux, SEQ ID NO 2794 (protein)
chain: B10 chain with N9D, L11R, N30D, V103I
B23: MBIO-5372: computationally generated LgLux, SEQ ID NO 2787 (protein)
chain: B10 chain with N9D, L99Q, V103I
B24: MBIO-5362: computationally generated LgLux, SEQ ID NO 2777 (protein)
chain: B16 chain with D9N, R11L, K26A, D30N, Q99L, I103V
B25: MBIO-5364: computationally generated LgLux, SEQ ID NO 2779 (protein)
chain: B16 chain with D9N, Q99L, I103V
B26: MBIO-5371: computationally generated LgLux, SEQ ID NO 2786 (protein)
chain: B16 chain with R11L, D30N

Tested on: construct containing Small Lux (SmLux), Large Lux (LgLux), FKBP and FRB
Test: LuxSit split optimization: SmLux-LgLux-FKBP-FRB construct on the surface of yeast, rapamycin-induced signal
Type: biochemical
Conditions: Table 19, LgLux variants, 50 uM substrate 1c
Method: To optimize the function of the LuxSit Splits, a construct containing Small Lux (SmLux), Large Lux (LgLux) and the proteins that bind the molecule Rapamycin (FKBP and FRB), connected by GS linkers, was expressed on the surface of yeast. When 50 uM of substrate 1c is added to yeast expressing this construct, a baseline signal is observed due to SmLux and LgLux reconstitution. When 20 uM of Rapamycin is added, SmLux and LgLux are brought closer to each other by FKBP and FRB, enhancing their reconstitution. As a result, an increase in signal is observed.
Libraries of SmLux and LgLux were assembled and tested independently to identify variants with lower baseline and higher fold change.

Row | Molecule | Baseline Signal (Normalized by expression)
1 | B1 | 23769.5
2 | B2 | 14853.7
3 | B3 | 16379.8

Same assay, conditions: Table 19, LgLux variants, 50 uM substrate 1c, 20 uM Rapamycin

Row | Molecule | Fold change upon Rap addition
4 | B1 | 1.9
5 | B2 | 2.1
6 | B3 | 2.1

Tested on: SmLux
Test: Computationally generated LgLux variants expressed in E. coli, tested in lysates with SmLux and substrate 1c
Type: biochemical
Conditions: Table 22, 20 uM SmLux, 50 uM substrate 1c
Method: LgLux sequences were designed computationally, and their activity measured as depicted schematically in FIG. 45.
A library of the computationally generated LgLux variants were expressed in E. coli and tested in lysates. 20 uM of SmLux and 50 uM of substrate 1c was used for the screening.
LgLux_4039 sequence is as set forth in SEQ ID NO:2773. MBIO-5103 through MBIO-5124, MBIO-5261 through MBIO-5295, MBIO-5101, and MBIO-5102 (SEQ ID NO:2815-SEQ ID NO:2873, respectively) are computationally generated LgLux. The sequences and activity of these LgLux are shown below in Table 21.
MBIO-5358 and MBIO-5360 through MBIO-5381 (SEQ ID NO:2774-SEQ ID NO:2796, respectively) are computationally generated LgLux.

Row | Molecule | Fold change upon SmLux peptide addition
7 | B4 | 359.8
8 | B5 | 32.61
9 | B6 | 390.25
10 | B7 | 4.95
11 | B8 | 6.08
12 | B9 | 289.49
13 | B10 | 22.28
14 | B11 | 240.47
15 | B12 | 151.01
16 | B13 | 3.64
17 | B14 | 5.17
18 | B15 | 243.66
19 | B16 | 205.44
20 | B17 | 32.23
21 | B18 | 85.83
22 | B19 | 245.29
23 | B20 | 98.41
24 | B21 | 157.38
25 | B22 | 176.25
26 | B23 | 20.86
27 | B24 | 27.24
28 | B25 | 172.59
29 | B26 | 48.58

Same assay, conditions: Table 22, 50 uM substrate 1c

Row | Molecule | Baseline Signal (Normalized by expression)
30 | B4 | 1452.6
31 | B5 | 931.2
32 | B6 | 4567
33 | B7 | 366.8
34 | B8 | 231.6
35 | B9 | 760
36 | B10 | 158.6
37 | B11 | 796
38 | B12 | 388.2
39 | B13 | 150.2
40 | B14 | 156.4
41 | B15 | 440.6
42 | B16 | 324.4
43 | B17 | 339.2
44 | B18 | 197
45 | B19 | 409.4
46 | B20 | 207.6
47 | B21 | 322.6
48 | B22 | 338.4
49 | B23 | 210.6
50 | B24 | 906.4
51 | B25 | 376.8
52 | B26 | 234.6

Reference: patent US20260250737A1, “Engineered Luciferases and Luciferin Substrates” (Monod Bio, Inc., priority 2023, published 2026)
